These results are taken from the supplement of paper PMC12042874.

This data set in a line: amyloid nucleation score (Sup35N fusion, yeast selection) (log enrichment); library NNK2; higher = more nucleation; inactive = no reads after selection. The procedure, abridged:
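Nucleation score: DiMSum log enrichment of output over input reads, centred on the mode score of non-aggregating sequences. Only sequences with at least 100 input reads were kept. Reads came from Illumina sequencing of plasmid inserts before and after 7 days of growth at 30°C without adenine and uracil, in psi-negative yeast expressing Sup35N fused to peptides of 20 random codons after 24 hours of induction with 100 μM copper sulfate.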

± gives the uncertainty stated by the source.

VTGTYFLVLITCA registered an amyloid nucleation score of 4.27 ± 0.065. On to LADTVIMGLGSTLFVYVYLI, for which the amyloid nucleation score stood at 3.88 ± 0.077. Substance AWANRMWWAR displayed an amyloid nucleation score of 4.23 ± 0.074. In turn, GSTVKSIVCDSVWS had an amyloid nucleation score of 0.082 ± 0.65. Take IVAGVSSGQGIDQDSIVNKR: the amyloid nucleation score worked out at 0.102 ± 1.1. To MAKIFFPNRQVIPPTRMQRV belongs 1.12 ± 0.47; to PCSWPNPHLRIGFRLKSPPP, 4.34 ± 0.076; to VSSVRIILLAWWSMRTLYFD, -2.43 ± 0.78. To VNGSTMFQVMFWLRPVHVIE belongs -0.119 ± 0.53; to LEAMVTITT, 0.273 ± 0.39. As to LCWMRFLDSCEEVHKSIHVF, the amyloid nucleation score is 0.38 ± 0.39.

Take LSPYYSLCVSGSTWSAVQPL: the amyloid nucleation score worked out at 0.476 ± 0.51. In the case of YTGIESE, the amyloid nucleation score came to 0.768 ± 0.21. STWVWMSFCVNLLDPHACGS displayed an amyloid nucleation score of 7.542 ± 0.03.

Turning to IKVYESYVRT, the amyloid nucleation score is -0.812 ± 0.39. With GRCYIISCPESWHKPMYVAI, the amyloid nucleation score is 0.142 ± 0.34.

The substance LHIFSSWTRW gave an amyloid nucleation score of -0.451 ± 0.76. HYVVFVF displayed an amyloid nucleation score of 6.37 ± 0.084. The value for VGVVVNFRASGPGFE was 8.288 ± 0.061; that for RVMRCGCIDVQAILNVIVSQ was 9.316 ± 0.039; that for SRYKWKTDVHTKWTCHF was 1.73 ± 0.091. The substance YGRPIIVMYKLLRQNSSSRL yielded an amyloid nucleation score of -0.496 ± 0.48. SGLRYFMFIISNSI had an amyloid nucleation score of 0.58 ± 0.22. On to LMGKGMSTLGDDGVFSRG, for which the amyloid nucleation score is -0.378 ± 0.49.

Regarding WLIKPVAPLSVYWSVWWSVV, the amyloid nucleation score was 0.3 ± 0.55. Regarding SCSYRFSRSDDNCKTRFIAF, the amyloid nucleation score was -0.582 ± 1.1.

For CLDLLWHSWASYLLAGALWW, the amyloid nucleation score came to 0.94 ± 0.74. On to QEVELGMGPKRGETVKEVDL, for which the amyloid nucleation score stood at 0.098 ± 0.22. In the case of AMRGI, the amyloid nucleation score stood at 1.26 ± 0.23. With MDPYYRKICSCDVGVNYRFL, the amyloid nucleation score result is “inactive”. The value for RYMGVMVYKAPPRRTWCGKV was -0.237 ± 0.41; that for TFVRVPFWFRKN was 9.788 ± 0.071. Turning to KGMLGAASHSQIKFVCVFSW, the amyloid nucleation score was -0.493 ± 0.32.

Substance DMVCRY came in with an amyloid nucleation score of -0.272 ± 0.36. Take KMWIRLLRSEIPKCVGLTVS: the amyloid nucleation score is 0.66 ± 0.23. The value for CLTSGHL was 0.372 ± 0.74; that for VDGTFYLTYFTTCVQSIFFA was 0.558 ± 0.6. Turning to WGQNNAEAFNYALMWVFRVW, the amyloid nucleation score was found to be 2.49 ± 0.11.

The substance MQMLWYTMFFNSSRLVC displayed an amyloid nucleation score of -1.58 ± 0.61. As to RGSSALDE, the amyloid nucleation score is 0.382 ± 0.35. The substance VETMY yielded an amyloid nucleation score of 1.24 ± 0.43. As to RDFVE, the amyloid nucleation score is -0.386 ± 0.56. As to CLKPFRHTFEFLYQVDFTEV, the amyloid nucleation score was -1.56 ± 1.1. PILYGSNGVRFV returned an amyloid nucleation score of -1.05 ± 1.1. Take NYRRGEKNGVDVNLASKQCT: the amyloid nucleation score came out at 0.86 ± 0.46. To LLIREMEHLFVEAKVENLRE belongs 0.531 ± 0.33; to VGGLFYLLLMG, -0.865 ± 0.53; to KDHSMSELYGGICVRCYKLI, -0.378 ± 1.

As for VEMSEDEPCLWYGSLIPGTR, the amyloid nucleation score was 2.83 ± 0.18. Substance KFSVSLICYVTASRYSNYRE registered an amyloid nucleation score of 0.362 ± 0.31. In turn, SYNTRFIASSCSGSY yielded an amyloid nucleation score of -1.06 ± 0.76. In the case of KGVLSGTWGGIRRIMTHVHD, the amyloid nucleation score worked out at 0.004 ± 0.36. As to FHSLRQLFMNTGVL, the amyloid nucleation score entry was “inactive”. With LIFRFLGLVMLFQ, the amyloid nucleation score result is “inactive”.

KLQRTGLYCYLY gave an amyloid nucleation score of -0.912 ± 0.42. To NFFAHRVCHYFVIRCGLIT belongs “inactive”. With IVGNGRMCLRELSRFCFVRC, the amyloid nucleation score stood at 1.04 ± 0.28. In turn, SFVSTVFMGRVFMQHAISTR had an amyloid nucleation score of -1.08 ± 0.55. Turning to HNLWCDISLFGHIYRGRGTM, the amyloid nucleation score worked out at 7.21 ± 0.08. For CMGDNVIC, the amyloid nucleation score is -0.954 ± 0.37. With LYCDECISWYAHDWLNI, the amyloid nucleation score amounted to 0.409 ± 0.45.

Consider LLKGVASVQSTDAVRHMWSS, for which the amyloid nucleation score came to 0.252 ± 0.8. To MQFLFK belongs -1.33 ± 1.1; to SQMYGLAYVCRQ, 6.28 ± 0.076. To GTLPSGICSRKGMPT belongs 0.283 ± 0.28. In turn, VWGLLTIPCVSQIRCRCGFS registered an amyloid nucleation score of 0.749 ± 0.53.

Take VVYWRWTTPDLRVKAHGLFF: the amyloid nucleation score worked out at 0.438 ± 0.5. For ILQFKVGKGQGNAQLFKPII, the amyloid nucleation score is -0.935 ± 0.55. As to LLFPQANMKDRSSPGVDWAQ, the amyloid nucleation score was 2.72 ± 0.068. In the case of VERVPGCTRTRTFWLNSSDW, the amyloid nucleation score is 0.591 ± 0.25. The substance ISSMSTLFCLFRGCVGGEYI had an amyloid nucleation score of -2.18 ± 0.64.

For VSSLFIEDFFFNRTSVMYIG, the amyloid nucleation score was 0.103 ± 0.25. ISLHILCCRSMF returned an amyloid nucleation score of 8.618 ± 0.079.

For RTNYWVIAWIYAFGS, the amyloid nucleation score was -0.716 ± 1.1.

The substance LRVWYDSSAVDMLNVLMSFP yielded an amyloid nucleation score of 5.737 ± 0.032. Substance HVVLNFCDTVWLMSKAP gave an amyloid nucleation score of 9.03 ± 0.078. To WEDKVAGSMGAWDDLG belongs 0.791 ± 0.67; to SNSNTSEWKTG, -0.156 ± 0.79; to WWRRRCR, 0.224 ± 0.3. Take DFGKIGEWDWAGGVYLSAWR: the amyloid nucleation score was -0.137 ± 1.1. KLFSYPIWWSRYCRMGRHRC came in with an amyloid nucleation score of 0.374 ± 0.28. RNGLILCLGEVVMSSMESVT yielded an amyloid nucleation score of -0.646 ± 0.61. As to GFVGF, the amyloid nucleation score came to 2.68 ± 0.17.

In the case of ITIRCGSKDSFMNIGLGKMG, the amyloid nucleation score came to 4.09 ± 0.11.

WTDAKALGGLSLLIRWSLEE yielded an amyloid nucleation score of 4.13 ± 0.087. For the substance RVWSY, the amyloid nucleation score entry was “inactive”.

Consider RMSIICFALKYILYRWMFRL, for which the amyloid nucleation score was 0.988 ± 0.74. To GCDLYL belongs -0.256 ± 0.79. In the case of GQNTDVTCQRYERTM, the amyloid nucleation score was 0.329 ± 0.62. WCTLFFQCRRPG: the amyloid nucleation score was determined as 5.554 ± 0.049.

SFKISDYDECSCFKFYMAPI: the amyloid nucleation score is 7.08 ± 0.082.

Consider FCPLLPVRFHV, for which the amyloid nucleation score is -0.533 ± 0.61. CYVVAREKSLIETGNFGKYG showed an amyloid nucleation score of -0.653 ± 0.79. VDPPLGKWGAEGCI displayed an amyloid nucleation score of 0.484 ± 0.51. YVANGPFCPDFLLLAGWYGV registered an amyloid nucleation score of 0.447 ± 0.53. Consider ASGQWGPD, for which the amyloid nucleation score is -0.67 ± 0.76. With LPVHANNGVNMFILIVPPGS, the amyloid nucleation score worked out at 5.948 ± 0.051. Turning to TEILILMIGLIAGLYCEIRF, the amyloid nucleation score was -0.231 ± 0.79. The value for CGSQKWVQYKIMKWYK was 0.627 ± 0.57; that for HSWNV was “inactive”. For HMTSS, the amyloid nucleation score was -0.495 ± 0.33.

Substance IIGDTICVVIIKWNLKNYRS yielded an amyloid nucleation score of 3.67 ± 0.075.

As for YMMSRASSVIIEREYK, the amyloid nucleation score was 0.479 ± 0.74. The value for NTNASDWRGAMLLSCMRFYS was -0.257 ± 0.42; that for RRVYCNIIVSGVCVSGE was 1.42 ± 0.12. In the case of GMVVFVI, the amyloid nucleation score is 0.21 ± 0.51. For LGRIHYNLFYVYV, the amyloid nucleation score stood at 2.27 ± 0.14. In turn, TDWVW displayed an amyloid nucleation score of 0.593 ± 0.2.

EVSTWQLPMNTDTVEGGSVV came in with an amyloid nucleation score of 1.16 ± 0.25. Take NYLRYLLMDSHMRLMDRWKQ: the amyloid nucleation score is 4.87 ± 0.069. Consider IFGLCCFCGSYQRY, for which the amyloid nucleation score is 8.152 ± 0.033. The value for KNKSFNMACPVLVYGGFLIR was “inactive”; that for ADWMFRFMKERRQMVWNTRI was 0.044 ± 1.1; that for RCDLWLSYCQPLNVFLYWLV was 0.313 ± 0.65. As for SFLFVFSRTGFDCLVDFCFE, the amyloid nucleation score was -1.76 ± 0.75. Substance IRGGHTLSYRVEDKRPTEWG gave an amyloid nucleation score of 2.04 ± 0.2. LVVLWK had an amyloid nucleation score of 6.01 ± 0.061. The value for VVVSRTITLSTSYEFYIVKY was 0.798 ± 0.32; that for LLCCMWFDRWLWTGLAWITV was 0.247 ± 0.24; that for IMTDPRSSLSLWCLNLSVNG was 4.88 ± 0.082. With CRSWTHKSHIPVKLSNDTMS, the amyloid nucleation score is -0.106 ± 0.63.

In turn, NFCALSKCT displayed an amyloid nucleation score of -0.618 ± 0.63. Consider TSTTYRLYKLGQFLARPANQ, for which the amyloid nucleation score was -0.637 ± 1.1.

Regarding RSLDEPSFFIPMPMYWVLGV, the amyloid nucleation score was 0.271 ± 0.65. IVGELVMTFKSVMAARTPFH returned an amyloid nucleation score of 4.19 ± 0.064. To YHSWVGFIRYPIISWGRMMG belongs “inactive”. For the substance YECGCHLFD, the amyloid nucleation score is -0.225 ± 0.74. As to PYLGRFFSCLYTEWDTP, the amyloid nucleation score entry was “inactive”. Regarding SQYMVGPGKRRKKSYGVG, the amyloid nucleation score result was “inactive”. Turning to YNTVVVPDVMTGRF, the amyloid nucleation score is -0.599 ± 1. With MFILGAHGKFGSTTMGVLAC, the amyloid nucleation score was -1.64 ± 0.62. The value for RWSYLYSKEVH was -1.28 ± 0.64; that for AWRMCTV was 0.302 ± 0.33; that for ISRRHGFIILLGNDIRRVDY was 0.554 ± 0.81. ALWVKGMFGGTMTRGILFLC gave an amyloid nucleation score of -0.369 ± 1.1. For the substance NFTIHTWVYMHRVNPPGILN, the amyloid nucleation score entry was “inactive”. In turn, TAALRVILGCMYNIWQMWHR showed an amyloid nucleation score of 1.06 ± 0.57. VWEGTGPLEICWFCWGEW displayed an amyloid nucleation score of 2.5 ± 0.17.

The substance MCSMCIVLPPVCVLKAKVYT showed an amyloid nucleation score of 3.69 ± 0.081. Turning to YPLGS, the amyloid nucleation score result is “inactive”.

With AFAFINIWKHLYIFQGQPSL, the amyloid nucleation score result is “inactive”.
